Data as given in patent US10117916B2, “Peptides and combination of peptides for use in immunotherapy against CLL and other cancers” (immatics biotechnologies GmbH, priority 2015, dated 2018).

Target: HLA-A*02:01 (Homo sapiens, UniProt P04439, D140Y/D185E/D98H/E176V/E277Q/G131W/G231S/I119V/I121R/I166T/I218V/L300P/L318F/N151K/N90K/P208A/P217A/Q86G/Q94H/R138H/R169H/T345S)
Assay: MHC binding assay: UV-ligand exchange with β2m ELISA (peptide exchange yield)
Details: MHC class I binding score; binding to HLA-A*02:01 ranged by peptide exchange yield (UV-ligand exchange, β2m ELISA)
Procedure, shortened: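 Peptide–MHC complexes formed by UV-ligand exchange, cleaving a UV-sensitive peptide so the test peptide can bind. Exchange yield measured by ELISA: complexes captured on streptavidin-coated wells, diluted 100-fold, detected with HRP anti-β2m (1 h, 37 °C) and TMB at 450 nm, against refolded HLA-A*02:01/MLA-001 standards (15-500 ng/ml).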

Substance | Peptide Exchange
249 (LLPTGVFQV; listed as Homo sapiens) [compound 249] | ″+++″ (≥50 = +++)
250 (LLVQEPDGLMV; listed as Homo sapiens) [compound 250] | ″+++″ (≥50 = +++)
251 (LLYDNVPGA; listed as Homo sapiens) [compound 251] | ″+++″ (≥50 = +++)
252 (NLLDPGSSYLL; listed as Homo sapiens) [compound 252] | ″+++″ (≥50 = +++)
253 (NLWSVDGEVTV; listed as Homo sapiens) [compound 253] | ″+++″ (≥50 = +++)
254 (QLIPKLIFL; listed as Homo sapiens) [compound 254] | ″+++″ (≥50 = +++)
255 (YLFEEAISM; listed as Homo sapiens) [compound 255] | ″+++″ (≥50 = +++)
256 (QLLPVSNVVSV; listed as Homo sapiens) [compound 256] | ″+++″ (≥50 = +++)
258 (RLDYITAEI; listed as Homo sapiens) [compound 258] | ″+++″ (≥50 = +++)
259 (RLLDEQFAVL; listed as Homo sapiens) [compound 259] | ″+++″ (≥50 = +++)
260 (SLDDVEGMSV; listed as Homo sapiens) [compound 260] | ″+++″ (≥50 = +++)
261 (SLVEAQGWLV; listed as Homo sapiens) [compound 261] | ″+++″ (≥50 = +++)
262 (SLWNAGTSV; listed as Homo sapiens) [compound 262] | ″+++″ (≥50 = +++)
263 (SQWEDIHVV; listed as Homo sapiens) [compound 263] | ″+++″ (≥50 = +++)
264 (TILDYINVV; listed as Homo sapiens) [compound 264] | ″+++″ (≥50 = +++)
265 (TLLADDLEIKL; listed as Homo sapiens) [compound 265] | ″+++″ (≥50 = +++)
266 (TLLDQLDTQL; listed as Homo sapiens) [compound 266] | ″++″ (≥20% = ++)

Substance | Peptide Exchange
267 (TLLDWQDSL; listed as Homo sapiens) [compound 267] | ″+++″ (≥50 = +++)
268 (TLLQVFHLL; listed as Homo sapiens) [compound 268] | ″+++″ (≥50 = +++)
269 (TLTDEQFLV; listed as Homo sapiens) [compound 269] | ″++″ (≥20% = ++)
270 (TVLPVPPLSV; listed as Homo sapiens) [compound 270] | ″+++″ (≥50 = +++)
271 (VIRNIVEAA; listed as Homo sapiens) [compound 271] | ″++″ (≥20% = ++)
272 (VLDELPPLI; listed as Homo sapiens) [compound 272] | ″+++″ (≥50 = +++)
273 (VLGEYSYLL; listed as Homo sapiens) [compound 273] | ″+++″ (≥50 = +++)
274 (VLLEYHIAYL; listed as Homo sapiens) [compound 274] | ″+++″ (≥50 = +++)
275 (VLLFIEHSV; listed as Homo sapiens) [compound 275] | ″+++″ (≥50 = +++)
276 (VLNDGAPNV; listed as Homo sapiens) [compound 276] | ″+++″ (≥50 = +++)
277 (VMILKLPFL; listed as Homo sapiens) [compound 277] | ″++″ (≥20% = ++)
278 (YLDDLLPKL; listed as Homo sapiens) [compound 278] | ″+++″ (≥50 = +++)
279 (YMAPEVVEA; listed as Homo sapiens) [compound 279] | ″+++″ (≥50 = +++)
280 (YTLDSLYWSV; listed as Homo sapiens) [compound 280] | ″+++″ (≥50 = +++)
283 (ILQPMDIHV; listed as Homo sapiens) [compound 283] | ″+++″ (≥50 = +++)
284 (LLSAAEPVPA; listed as Homo sapiens) [compound 284] | ″++″ (≥20% = ++)

Second part, the substance after the results:

Peptide Exchange | Substance
″++++″ (≥75% = ++++) | 285 (GVATAGCVNEV; listed as Homo sapiens) [compound 285]
″+++″ (≥50 = +++) | 286 (FLLEDLSQKL; listed as Homo sapiens) [compound 286]
″++++″ (≥75% = ++++) | 287 (FLWEEKFNSL; listed as Homo sapiens) [compound 287]
″+++″ (≥50 = +++) | 288 (GLAESTGLLAV; listed as Homo sapiens) [compound 288]
″+++″ (≥50 = +++) | 289 (ILEEQPMDMLL; listed as Homo sapiens) [compound 289]
″+++″ (≥50 = +++) | 291 (ILLNEDDLVTI; listed as Homo sapiens) [compound 291]
″+++″ (≥50 = +++) | 292 (AAALIIHHV; listed as Homo sapiens) [compound 292]
″+++″ (≥50 = +++) | 293 (ALDIMIPMV; listed as Homo sapiens) [compound 293]
″++++″ (≥75% = ++++) | 294 (ALLDQLHTLL; listed as Homo sapiens) [compound 294]
″+++″ (≥50 = +++) | 295 (ALLQKLQQL; listed as Homo sapiens) [compound 295]
″++″ (≥20% = ++) | 296 (FIAPTGHSL; listed as Homo sapiens) [compound 296]
″+++″ (≥50 = +++) | 297 (FLVEPQEDTRL; listed as Homo sapiens) [compound 297]
″+++″ (≥50 = +++) | 298 (IILPVEVEV; listed as Homo sapiens) [compound 298]
″+++″ (≥50 = +++) | 299 (ILEENIPVL; listed as Homo sapiens) [compound 299]
″+++″ (≥50 = +++) | 300 (ILLNPAYDVYL; listed as Homo sapiens) [compound 300]
″+++″ (≥50 = +++) | 301 (AASPIITLV; listed as Homo sapiens) [compound 301]
″+++″ (≥50 = +++) | 302 (ILQDLTFVHL; listed as Homo sapiens) [compound 302]
″+++″ (≥50 = +++) | 303 (ILSQPTPSL; listed as Homo sapiens) [compound 303]
″+″ (≥10% = +) | 304 (LAIVPVNTL; listed as Homo sapiens) [compound 304]
″+++″ (≥50 = +++) | 305 (LLFPQIEGIKI; listed as Homo sapiens) [compound 305]
″++″ (≥20% = ++) | 306 (VVAEELENV; listed as Homo sapiens) [compound 306]
″++++″ (≥75% = ++++) | 308 (SLYDVSRMYV; listed as Homo sapiens) [compound 308]

Peptide Exchange | Substance
″+++″ (≥50 = +++) | 309 (ILYGTQFVL; listed as Homo sapiens) [compound 309]
″+++″ (≥50 = +++) | 310 (LLSTLHLLV; listed as Homo sapiens) [compound 310]
″+++″ (≥50 = +++) | 311 (LLVDVEPKV; listed as Homo sapiens) [compound 311]
″+++″ (≥50 = +++) | 312 (LLYNSTDPTL; listed as Homo sapiens) [compound 312]
″+++″ (≥50 = +++) | 313 (LMADLEGLHL; listed as Homo sapiens) [compound 313]
″+++″ (≥50 = +++) | 314 (LMKDCEAEV; listed as Homo sapiens) [compound 314]
″+++″ (≥50 = +++) | 315 (LVYEAPETV; listed as Homo sapiens) [compound 315]
″+++″ (≥50 = +++) | 316 (MLLEHGITL; listed as Homo sapiens) [compound 316]
″+++″ (≥50 = +++) | 317 (NLLAHIWAL; listed as Homo sapiens) [compound 317]
″+++″ (≥50 = +++) | 318 (NLQVTQPTV; listed as Homo sapiens) [compound 318]
″+++″ (≥50 = +++) | 319 (QVIPQLQTV; listed as Homo sapiens) [compound 319]
″+++″ (≥50 = +++) | 321 (RLLEFELAQL; listed as Homo sapiens) [compound 321]
″+++″ (≥50 = +++) | 324 (SLYSALQQA; listed as Homo sapiens) [compound 324]
″+++″ (≥50 = +++) | 325 (TLENGVPCV; listed as Homo sapiens) [compound 325]
″++++″ (≥75% = ++++) | 326 (VLAFLVHEL; listed as Homo sapiens) [compound 326]
″++++″ (≥75% = ++++) | 327 (VLIKWFPEV; listed as Homo sapiens) [compound 327]
″++++″ (≥75% = ++++) | 328 (VLLPQETAEIHL; listed as Homo sapiens) [compound 328]
″+++″ (≥50 = +++) | 330 (VLMWEIYSL; listed as Homo sapiens) [compound 330]
″+++″ (≥50 = +++) | 331 (VLWELAHLPTL; listed as Homo sapiens) [compound 331]
″+++″ (≥50 = +++) | 333 (VTLEFPQLIRV; listed as Homo sapiens) [compound 333]
″+++″ (≥50 = +++) | 334 (YLLEEKIASL; listed as Homo sapiens) [compound 334]
″+++″ (≥50 = +++) | 335 (YLYQEQYFI; listed as Homo sapiens) [compound 335]
